Source: the domain aggregation screens of Martell et al. (2025)

Test: soluble fraction after stress (log2 fold change); higher = more stays soluble; pooled small domains, quantitative proteomics
Conditions: stress: 50 degC
In short: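 Quantitative proteomics served as the high-throughput read-out for pooled custom libraries of small protein domains. Each was stressed at 50°C. Aggregation propensity is expressed as the base-two log fold change in soluble protein after stress. A higher value means a larger share of the protein remains in solution.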

| Sequence | soluble fraction (log2) |
| --- | --- |
| HMLEIRGFTVLLSDRGIVGIIEEIIQNPGQDLLRILSPEKREILVPLHSDLITGINKKKKTITMNLPDGL | -0.465 |
| HMSSEASALRGWLQTSQYQGSVTLFANALNVPLKTVEDWVYGRSKPSLQHWSQLYEATGLPEYQQ | -0.18 |
| HMEILNYVVSDGQSGIRIDRYLSDSNEDLSRSYIQKLLKEQKVTVQGTFVKANYKVQAGDVITVEVPDMA | -0.946 |
| HMEMLQENIRNLRKAKGWSQEELAIKLNVVRQTVSKWEKGLSVPDSQMLIRIADELDTTVAILLG | -0.246 |
| HMSEQVQLQAQVEDDLIGKRLDQVVAQLFPDYSRSRLQGWIKDGSLTVDGESRRPRDKMMGGEVVRVEATL | 0.0984 |
| HMNQKTQMTKQILAESLKKLMLHHSFEKITIKDITDAAGFIRPTFYNHFKDKYDLVEWIFTEEI | -0.364 |
| HMRKYEAVPASVVPAQIQEYVAKSNFPNQYIRKIERNKYTWEIELSNGLEIKFDRQFNVIGFD | -1.49 |
| HMPGLITLEAAKTTALNHAKLTADQVTFVKQKLDRDDGRQVYEIEFYTSDYKEYDYEIDAVSGLILEVDYD | -0.671 |
| HMRLPNGYGSITKLSGKRRKPFMVRITTGYDNEGKQLMSVLGYYATRTEALAVLAEYNKNPYNPI | -2.57 |
| HMSRTLLVYVTGAVRQPGVYELPEGSRFFDAVKAAGDVLPYAVMEDINMAEPLSDGMKIHIPLDPEQ | -0.125 |
| HMGAVDIATARQLISEIGLPIMLKAEGGGGGRGIFAIHNEAELEDAFFKASTMAQASFGNPRLFVEKF | -0.228 |
| HMEQKELAPLVPQEDGSVKLTNLAGYSMREVAAALEGGNLSLIPIGSGTSWKQDPAPGTVLQPGNTVTVYF | 0.00354 |
| HMDKWFPVSSDHKVQVGDYLRTADGLVKVEATHNEYGTFYGKIITAIHDDVVKGETYEYRIDDVQVLA | -0.0324 |
| HMNTEEITYSRFQQMLEAGEISQVSIESNRILILPSEETGIEKVLYTGIINDPGLVERLNSAGVEFRAPIE | -0.00156 |
| HMSGPMVPNVVGLSEEMARALLSDYSITIKHAHDGVIPKDRVASQLPLATTHAKVGSSVVLTIS | -0.354 |
| HMQADPYTVLGVLRDVTDGELKREYRKLVREHHPDALIAQGVPQEFVDIANNKLAVINAAYERIAKQRGL | 0.00775 |
| HMGGASVTDQQIRDFVSAHTDDPMAIYKAAVANGISSARLAQVTGISIADIEAFVRKNNLPSF | 0.0932 |
| HMSRVFSPSELEIRHAQDVFQALEEAKRQGKGAVSLNGKMIDAPIVARAKLVLEAAAAIYGED | -0.362 |
| HMYFDDEELDTYKGRASNAYSPDETAQFEEVMTTMRPDEVAAWLRSLQLRGINLPDELKDEAIMLVE | -0.0866 |
| HMKTPETSEYVVQAGDSLRRILTERYGAKEQDLPYLYRQFRLLNPKVSSLDNIHAGTKVRIPLVASVL | 0.132 |
| HMSKLSVSSLSSPEVQNQLKAAGIDVNSRQYQVVMKDMMGALDGRAGYTTVSAIKNRMRQYNADGDY | 0.474 |
| HMIVDINDVRIDKYIADNTDYSRNLILNLIKNGDILVNDSKIKPSYKVKQGDKITINNVKTD | 0.227 |
| HMVLVKFEWTPPDARILVDDHPVEARDKEMELPEGTHHVQALAPRGSGYESTVTDIEVRQGMDPVRIAL | -0.182 |
| HMDMPLIGTAIRGWGIISPAQQETLIKMSILTVEDLAAINDEGIKRIGMGGLDLKNKAKAWLLQLK | -0.751 |
| HMGWTTPAGIAVGMDKSVLQDAYGKEDDTFQDKGILYYQYFVHPSRMSGLSFGIKNDKIVSITAYMD | -2.06 |
| HMREEMYGLIGFITTSEVTDTFGQMEIKLENEPEMRINVRTNPGESLARGDAAKIISFNNSNGTFLVELTK | -0.474 |

| Sequence | soluble fraction (log2) |
| --- | --- |
| HMTIKNHIDEILKKEPFILENIKNGLINISALARQIEPQLSRKVGKKLNVNAIIMTIKRMEIDQLNK | -0.989 |
| HMGAGLDDLVRKSLHNAGLKADDNVVSWISGNLGSDRMVSRMELEKLVLFVAGQSEITLEDAQAVIGD | -0.305 |
| HMSILTELDIGDKVEVVAGPFKGIQANITRIEPVRKEVTVILLDAPYQLPVTVDADYLKIIQKS | -0.155 |
| HMTTLAADFNSDGRVDIGDLSILAGNWGKSRTNEVDFNKYGDADYNGRIDIIDLSILATQFGQTDNSN | -0.0889 |
| HMAPFVIQQGQDVRLISKGPGFAVSNDGKALTNAAEGQLARARTANGQTVSGIARQGGIIEIA | 0.00455 |
| HMKEMTAKQIDMFSDKLSKLESFQSHYIADAGVSVTEYKQAIAAKLQDQFYVEAWGKYLADVGFT | -0.505 |
| HMKGILVPASSIISDGDKNYVWTVEKGKAKKVEVTLGNADAENQEISSGLTKDSKVITNPTDSLKDGQEV | 0.162 |
| HMAHLNYQTVDINALIRHSLQLVSQDAQSRGIALQFTPRPELTTISADPDRLNQVLLNLYLNAMQD | -0.334 |
| HMALLKRQDEILMYLYTQNKWITGNELAQLFHVSLRTIRNDISFINTEKSNSVLSNRNKGYHIAKDFVYNE | -0.924 |
| HMKEPIYQTILSALILELNTNHFRKNDPFYSESELRKKYQVSSTTVVRVLNMLADQGYIYRIQGKGSFVSK | -2.37 |
| HMTTHEQVAILRRELNGLVGAWHHRTGQAHGVTHSKLRKELGGPPAAVASAAQLSARIEKIRQWAT | -0.635 |
| HMGDSFLDHKKELQSMILSRLDLSREVPDEEIKDIIDELIIAQSKKLFLSLNDRGKLRQELFYSIRK | -0.566 |
| HMKKRDANSQGTRLILFYMLQRLHTEYKLQGFVTYNQRRSFREIYDAYHALGGNGFGTAMWEEVKELDLK | -1.43 |
| HMFAGEWKQDASGWWYQNDDGSFTRNGWQNISGKQYYFNENGYMLHDTTTPDGKQVGSDGSLV | 0.0661 |
| HMTELPLTPRSKRILEMSALEARRLNHSYIGTEHLLMAIIRDGDGVAAKILESLGVNLPNFYTDTVRSIE | -0.121 |
| HMKYKKYKLLKDLPTFKAGQLAYISKTGNLIAGTPENQKTTETGLIIMIYHETTLKKFPNILTEWFEEIE | -2.71 |
| HMIEDMQQYIKEIRQMVSGRLDMTRNLEDEEIRDTIAELVAEESRKQYMTLTEKREVIEGVFNSMR | -0.0273 |
| HMDANLGEIFKVYEQEIGALTPFVREEMLDAIDHYPRDWILDAIRESAKSNARNWKYTLAILKRWKAEG | -0.312 |
| HMSETAEFIIQVNGKVRAKLQLPTDISKEEIQKLALADENVQKYLNGEPRKIIFPPNTRLVSIV | -0.0471 |
| HMSSVEVWINGKSSGLTSDNRAQILQQLPAESIERIEVIDNPSAKFSAEGSAGIINIVLKKD | 0.157 |
| HMTKGVWHTVKKGENLYRISLYYEVPQQEIKKANKIETENIVVGQKLFIPNTTKKSPIFALTP | -1.49 |
| HMSLLTPLEEARIVIEELIIPQKLTLDLLPQNSQIRKLQHEIINHYRLKGISIGDGKNRRVRIYS | -0.133 |
| HMSETEEWTVEGGQAGDRIDRHVAAMLGDDVSRSQVQQWIRAGRVTVNGRAVKPSDTVEEGDRVAVDLPEP | 0.0588 |
| HMHPQISVEGVLPLKEAVEFVEREIISHAYSRYRATREVARHLGIDPSTVLRKAAKYGITVEPGKN | -0.658 |
| HMEDYYKILGVSKDASIDDIKKSYRKLSLQNHPDRNKSPQASENFAKINSAYEVLSDQRKKRQYDMQQSM | 0.0897 |
| HMSNEITVPDLSGMSLEELETILSDRSLSYEIIDSIYNSTAKKGTVSSQDPLPDAKVKSGRTIYITVVSKL | -1.5 |

| Sequence | soluble fraction (log2) |
| --- | --- |
| HMGKTEMPFSTFLTEVDKGNIVSVDIRGSEISGNFRDGKGFKTYSPNYPNLVEKLSAKGVAITAGPR | 0.187 |
| HMGSGLAAAEKIRKAHPEIKIVVATSLIDTQVLARAKAVGADSLWYKDGDEGTLMQVVRRTMAGDHIFP | -0.00704 |
| HMESYDSEIKEVLDLAGKGRWEEAQTKADALREMAPNNSLVERLHGWVLQAAHQRREQALENDIRE | 0.286 |
| HMESAESRVDLIGMIGEAITDLRPAGTAQFGEERIDVVSESEWITEGSTVKVVSAEGYRHVVRVME | -0.162 |
| HMNEIDLEAAKRIALQNAGVESADAAFTKAQLDYDDGVAEYEIEFVAGSTKYEYEISAANGTVLKSSKESV | -0.0497 |
| HMGDIMLLFKENGKVYFLVGNQYTYVKNPTELSAIKTMMKQAGYDTHEHTNTTQVAYIKRLATE | -2.11 |
| HMKQISNTDELESMAKNIIQENPDQVSKFKNGNEKLFGWFVGQMMKSTGGTANPKVVNEILKNLLN | 0.152 |
| HMFELVKISENIPIRDLAETLKTTPNEIIKELMVFGVLANINQTLNFDLASKVADKLGFEVELL | -0.246 |
| HMPGRKTTFEERLSIIEDLIKHDVNYSWAVDKYHVSYQQVYGWYQKYRKSGNDPQSLRDRRGK | -2.7 |
| HMGTELSYSEFLNKVEAGEVTNVTIRGPEITFQTGNSSYTTYAPDDPKLIEHLTAKGVAIKAGP | 0.216 |
| HMELVIGESLAVELLRPGKEDGQALGYLPDGSMVVVNNGRAFVGKRVTAEIIGVIRSAGGKMVFSNLLGE | -2.68 |
| HMRIDSFEDARRRFEYDYLTRLLKLTQGSVTQAAKLAKRNRTEFYKLLQRHGIEAAHFKPTS | -0.581 |
| HMFMPGTIIKQFRELRNYSQDYVSRKMGISQNAYSKIENNITQLTVTHVKQLSSILDVPIVELLR | -3.32 |
| HMLYEDVQVPNVRYWKSRDAKKQLEDLGLRVLTEHVNDAYIQSDQVIRTSPEIGDTLRTGDTVTLYVSDG | 0.185 |
| HMASLASVAYETLRQALDNFQYVPGDRFSESEVGQQLGMSRTPVREALVRLQREGYISVLPKMGWVVNQ | -1.64 |
| HMLLTASNYFKETKGINFSELPEALQKGHSFVIKSTENGTNWNAYSTSQNIQRVIDAYFSKLDEYLEKNQ | -0.611 |
| HMPYNNLADAPASWKKLDDTPLTLGQVNWIAKIYDALVAKGMEKGAAAGTAISRFKKSFKVADGKWVQV | -0.0698 |
| HMTDSDTQDIDVGELRVGHFVFLDLSWIRHPFPLSSFKIQSAEQIKTIRSLGLRRIRYSPGRSGP | -1.18 |
| HMQAGILTDTAAKNARIKKIDTERLEAELDQKRIVIVTGFQGVDRNQNITTLGRGGSDTSAVALAAAVSIT | 0.185 |
| HMPRENLAYTLIMDGIVQHKNLPRASVTEAWLKQELQKAGINDFRQVLIAGIDSKGQLYFQPKQK | 0.528 |
| HMEKRLDYTFGLNKEQLLYLTKSIKDGDFYNVSFIDGTEKKLNRVGSTKEVHKYVNFLMTNDGIVKK | 0.0518 |
| HMDRESFIKLGRELARSAFAHVGQKSTEKALETAADVLRLKDPNEVLARLGSAELTGRQVVQAIYPELI | -0.0704 |
| HMNKETYIDALERKLWDRLDPDQLRDIISYYKDYFAMEAAKGISEEETIRKLGDPALLAKSILAAE | -0.335 |
| HMKWGDTPTVEVPNLIGMKKKDLQTQLVDLKLDISGDGEKVIKQSPEAGAKVKEGSKIRIYFG | -0.0661 |
